In the DeepSol protein solubility set:

assay: soluble on expression in E. coli; label from the status in PepcDB or PDB records

**Q.** With “MLSEWQNHKAQLRNYVYKRVDDASAVDDILQDVYIKASSNLHQLKSKGSLKGWLYKIAYNTIMDFYRDKLPYDELPEDLVAEDEDAVEESRKEIAECMRPLIDELPDKYSVPLRLAELDGIPQQEIADKLGLSLSGAKSRIQRGRVKFRENLMTCCDFEINDGGMVTGYTPKKTNCSSPKR” as the sequence, how does the “soluble on expression in E. coli” value read?
**A.** not soluble

**Q.** For “MAAKPVLYYFNGRGKMESIRWLLAAAGVEFEEVFLETREQYEKLLQSGILMFQQVPMVEIDGMKLVQTRAILNYIAGKYNLYGKDLKERALIDMYVGGTDDLMGFLLSFPFLSAEDKVKQCAFVVEKATSRYFPAYEKVLKDHGQDFLVGNRLSWADIHLLEAILMVEEKKSDALSGFPLLQAFKKRISSIPTIKKFLAPGSKRKPISDDKYVETVRRVLRMYYDVKPH”, which “soluble on expression in E. coli” value is on record?
**A.** soluble

**Q.** For “MTQHPFISRVAVRNYKSIGYCDVNLRPLTYLVGHNGAGKSNFMDALHFVCDALSYSLDSALNERGGINEVRRRSGGHPTHFALRVEFVMQSGQAGRYGFVIGALKNGGYEVQREECVVAGIGKGPFFRIEKGKLRDSSETTFPSVTADRLALVAASGLTAFRPVFDALTAMGFYNLNPKLMRELQKPQDGRLLRPAGENIASVIGHLEKVAPAQMALIQEYLHSVAPMVHGVERKPIGPMETLEFRQDMAGSKHPWRFLAQNMSDGTLRALGVLSALLQGNVDYSPTLIGIEEPETALHPAASAALREALVRASETTQVLVTSHSPDLLDDHSIDADAVLAVVSEAGETKVAPLDEGSRQVMRDHLFSAGELLRMNQLAPDRASLEQQDKAASGDLFGETESVLEHHHHHH”, which “soluble on expression in E. coli” value is on record?
**A.** soluble

**Q.** For “MSDTADSLSARGIPKSELIEDVESWLTKEKLSIEEAEVVLREKYGKYKYVESSMLAQKVRMSEKIPEFENSLSIIDTLIAKRAADESFETTFLLSDDVYTKATVQKPEKVSIWLGANVMVEYDLENARKLLDKNRGSVQKVVDELTNELSYIKDQITTTEVNMSHIVNFGVNKRRAALAVNNGAK”, which “soluble on expression in E. coli” value is on record?
**A.** not soluble

**Q.** With “ESIYIQSPYFIPDQAFLDSIKIAALGGVDVNIMVPNKRDHPFVYWATLKNVASLLEAGVNVYHYDNGFLHSKTLVIDDEVASVGTANMDNRSFTLNFEVNAFIYDEGVARSLKQAFINDMKLSNKLTSEEYAKR” as the sequence, how does the “soluble on expression in E. coli” value read?
**A.** not soluble

**Q.** Which “soluble on expression in E. coli” value does the source give for “ENYLSIEKRLYENLAQESSHSASRLQFLLEHAQANTQGLSDFIGLLADKDDINNPEKLKTVLTNRIQRNPDFFGSAIAFKPNTFPNKKLFSPYVYRSGSGFNYLDIGADGYDYTDGNWDWWSKAINQVGGYWSKAYFDEGAGNVLMITYAVPFGVQPDYFGVTTVDLALDRLPEQLGIAPSRLVVLDDQGRLIFHSDKEKVLAASSSGWLDKQNIKNIAFATLLNDGQAGQASFVDDKGTVYLASVAEVAKLKWRVVVMVPKHELFASLLDDIA” here?
**A.** soluble

**Q.** With “MGSDKIHHHHHHMTPEMYADKYREYASAMPTFQKSIFDQNPIYKIASGPDGNKPIERVKWTKDFLKAFSRYRQPGINAMDLHFYNWNIEHESDTPTDFGEDDWYRVINGTRELDQIINQQADLIKEGLQNIPQPESSLDHRLDRIDLVVGEWGNWHRTAFTAKPALKQQVTMRDAISTALMLDILQKNSDKVTMACVAQTINVLNALILTEGDQTILTPNYDVFMMYKAHRGNSALKIQTNQDQKNVYTFASKKDGEIILDVINANLNDQVKLTVELNREIESISKDFLQSDRPTDFNSSDNPDLIRMQQTEVKDFSKGEITLELSPASVNVFHIKTID” as the sequence, how does the “soluble on expression in E. coli” value read?
**A.** not soluble

**Q.** For “VASGYGGIRVGGPYFDDLSKGQVFDWAPGVTLSLGLAAAHQSIVGNRLRLALDSDLCAAVTGMPGPLAHPGLVCDVAIGQSTLATQRVKANLFYRGLRFHRFPAVGDTLYTRTEVVGLRANSPKPGRAPTGLAGLRMTTIDRTDRLVLDFYRCAMLPASPDWKPGAVPGDDLSRIGADAPAPAADPTAHWDGAVFRKRVPGPHFDAGIAGAVLHSTADLVSGAPELARLTLNIAATHHDWRVSGRRLVYGGHTIGLALAQATRLLPNLATVLDWESCDHTAPVHEGDTLYSELHIESAQAHADGGVLGLRSLVYAVSDSASEPDRQVLDWRFSALQF”, which “soluble on expression in E. coli” value is on record?
**A.** soluble

**Q.** With “MAHHHHHHMNGNHGEPGTERENRSSADEAPKGDAFFDPSAEQYLVISPRQKLNPVLKKINRVRYKFSNIIPDFLIGKNNACLFISMKYHRLRSNYLKARIETLSNKYSNRILLCLVDIENIENSLGEINQLAFCFNMTLILCWSTEECARVIEDFKIYEKKISYIRNNKLTSTHAEKIHELLKKIRCINSSDCATITNKFKSFKNIVTAKKDDLINCSGLGNKKIQALISAFNDPFF” as the sequence, how does the “soluble on expression in E. coli” value read?
**A.** soluble

**Q.** For “MGSDKIHHHHHHMITQINIENFKCFSKKNMPVGALTMLTGFNAAGKSTALQALLLISQMVSGRHGDVSAALNGELVRMGTPGDVLRSDGSKEIKIGIETVEQKIQWTLVPSINLNNSLDLKDIHWASPNGVGDLTNISCNTSFNGLTPNEAPSDLSNLANEISDLIFISAVRMGTQDVYPSPTEPSPIRANVGMRGDYAPWWYEQHLDYEIDQKRVHSSEKALTLRRQLNAWLDQLFPGAEANAQKLPNTDLIQLLFRNSKTDVWRKPANIGYGLTYAFPILVAGLLARPGQLLIIDSPEAHLHPLGQSNMGKFLAKIAASGVQVLVETHSDHVLNGARLAVKSRVIDSRDVGILFFNRPPQKDGDPEHIIAPSIDKEGNLSDWPLGFFDQAENDLAVLADWG”, which “soluble on expression in E. coli” value is on record?
**A.** not soluble

**Q.** Which “soluble on expression in E. coli” value does the source give for “MECGLGGAGQPAVEAEGVWKRLGGRWVLKDVSLTVPRGSVYGVVGPNGAGKTTLFRTLLGLYRADRGRVALLGEPVERAGGSLFRRVAYLPEDGEPYRNMTGHEFLRLYASIYGVEDLEGYLEEASRLSGLGGRLGERVRSYSKGMRRRLLVAAMLALKPSLAVLDEPTAGLDPVYSVGIRRLLKEYSERHGVTVLLSSHNMYEVESVCSEITMISSGRIVYSGSPGEAVRRTGASSLEEAYVALVTGGGGES” here?
**A.** soluble

**Q.** For “MEKNYYVCTGCGMLCDDIEVDVENNKINKVYTACRIGVAHMKDGKESAAFLVDNKPVDETTAISEAATILKNAKNPLIFGLGTSSNEAQKLAIELAKKTSATLDDASSFSLGEVIEALLNNKTKVCTLDDVRNKADVSIFWGTDPSDSHPRQLSKYAYFPRGTEKQRGWEEERTAICIDVRKSHTAKICGNYFFQIPPGGDAEFIDALIAALAGKLPKTSYNFPPKRILELANILKGAKFGVVFAGRGLVYSLDNLEPLIRLMNALNEKANFHLVPMIRQYNTRGFNENLFKETGYVNSVKFEDGTVKHGPEYSVVESLKEKTVDAALIIGSDPFSILPRSIAKNLLEVPVIVLDPCETLTSRNAKVYISTAIDGVESGGSAIRMDGVKVDFKPAVETKRPSDETVLKKIMEAL”, which “soluble on expression in E. coli” value is on record?
**A.** not soluble

**Q.** Which “soluble on expression in E. coli” value does the source give for “MPRELGESLELRKGRHSVVYLTEKYAIKQFHERFRYNFLKEVKFLTLLQPFFFTPKLYFVDFANLRIVMERLRGRRFDEAFIRKAVERALEACFIMDVMGVEKQEMNHPDKHIIVGDDVYLIDFERARFKDRPSNLTQFCMYLRRFGIEIEKTLLKDYKTSVNCENFSRILHSVVEKLK” here?
**A.** not soluble

**Q.** With “MVNPFIKEAKEKMKRTLEKIEDELRKMRTGKPSPAILEEIKVDYYGVPTPVNQLATISISEERTLVIKPWDKSVLSLIEKAINASDLGLNPINDGNVIRLVFPSPTTEQREKWVKKAKEIVEEGKIAIRNIRREILKKIKEDQKEGLIPEDDAKRLENEIQKLTDEFIEKLDEVFEIKKEEIMEF” as the sequence, how does the “soluble on expression in E. coli” value read?
**A.** soluble

**Q.** For “MPISEPTWAELPFLFKSAVVELLPYKNRCCLRKCSKSDQFLVDSTPNHLHDVAIHTCENYTVFTYSDSPDTVFTLKYFKNIGENDLKIEYSESPVLFVPGKNQKFIFKTSIHVENLASEADDVDFALDDFKLLLNRLNCKKSIINMIPNQYNPIAHPDRTIEFRQRLLDLMTSSFPKKSIKSKSLVIHWHQETQEIAEILQVFHTKTLKNLEFHDRNATWHMAPIIGTEQWKGARSVLLEHLSDVKIEELKDFNEIQMHVRDSGEQELWTVIQNFIRKNLHGSSFHFTYRQAEPNVDRILATFNVPPRDEPITARTRLRSVLGSRFIHTQRFQMPSTDLILVVMISEKEVMGTVCHVDQVNVEAKVERGLLR”, which “soluble on expression in E. coli” value is on record?
**A.** not soluble
